# Experimental data from IntAct's records for PubMed 19966308.
# B1: Aquaporin-2 (Mus musculus), P56402 (parent)
# chain: MWELRSIAFSRAVLAEFLATLLFVFFGLGSALQWASSPPSVLQIAVAFGLGIGTLVQALGHVSGAHINPAVTVACLVGCHVSFLRAAFYVAAQLLGAVAGAAILHEITPVEIRGDLAVNALHNNATAGQAVTVELFLTMQLVLCIFASTDERRSDNLGSPALSIGFSVTLGHLLGIYFTGCSMNPARSLAPAVVTGKFDDHWVFWIGPLVGAVIGSLLYNYLLFPSTKSLQERLAVLKGLEPDTDWEEREVRRRQSVELHSPQSLPRGSKA
# Variants of: B1
# Details: with anxa2_canlf ANXA2, Q6TEQ7
# anxa2_canlf ANXA2, Q6TEQ7, sequence (Q6TEQ7 whole entry): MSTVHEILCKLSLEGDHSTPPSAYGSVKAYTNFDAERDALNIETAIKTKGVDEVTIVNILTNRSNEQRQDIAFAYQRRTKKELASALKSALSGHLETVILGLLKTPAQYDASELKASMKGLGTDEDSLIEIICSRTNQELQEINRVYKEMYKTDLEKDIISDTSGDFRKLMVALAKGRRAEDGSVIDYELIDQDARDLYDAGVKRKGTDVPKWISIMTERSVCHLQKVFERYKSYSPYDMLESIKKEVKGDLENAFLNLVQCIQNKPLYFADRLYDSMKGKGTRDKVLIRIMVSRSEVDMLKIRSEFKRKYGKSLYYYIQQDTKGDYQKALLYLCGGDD
row,Variant,effect of a mutation on the interaction
1,MWELRSIAFSRAVLAEFLATLLFVFFGLGSALQWASSPPSVLQIAVAFGLGIGTLVQALGHVSGAHINPAVTVACLVGCHVSFLRAAFYVAAQLLGAVAGAAILHEITPVEIRGDLAVNALHNNATAGQAVTVELFLTMQLVLCIFASTDERRSDNLGSPALSIGFSVTLGHLLGIYFTGCSMNPARSLAPAVVTGKFDDHWVFWIGPLVGAVIGSLLYNYLLFPSTKSLQERLAVLKGLEPDTDWEEREVRRRQAVELHSPQSLPRGSKA [S256A],increasing interaction

# Variants of: B1
# Details: with hsp71_canlf HSPA1, Q7YQC6
# hsp71_canlf HSPA1, Q7YQC6, sequence (Q7YQC6 whole entry): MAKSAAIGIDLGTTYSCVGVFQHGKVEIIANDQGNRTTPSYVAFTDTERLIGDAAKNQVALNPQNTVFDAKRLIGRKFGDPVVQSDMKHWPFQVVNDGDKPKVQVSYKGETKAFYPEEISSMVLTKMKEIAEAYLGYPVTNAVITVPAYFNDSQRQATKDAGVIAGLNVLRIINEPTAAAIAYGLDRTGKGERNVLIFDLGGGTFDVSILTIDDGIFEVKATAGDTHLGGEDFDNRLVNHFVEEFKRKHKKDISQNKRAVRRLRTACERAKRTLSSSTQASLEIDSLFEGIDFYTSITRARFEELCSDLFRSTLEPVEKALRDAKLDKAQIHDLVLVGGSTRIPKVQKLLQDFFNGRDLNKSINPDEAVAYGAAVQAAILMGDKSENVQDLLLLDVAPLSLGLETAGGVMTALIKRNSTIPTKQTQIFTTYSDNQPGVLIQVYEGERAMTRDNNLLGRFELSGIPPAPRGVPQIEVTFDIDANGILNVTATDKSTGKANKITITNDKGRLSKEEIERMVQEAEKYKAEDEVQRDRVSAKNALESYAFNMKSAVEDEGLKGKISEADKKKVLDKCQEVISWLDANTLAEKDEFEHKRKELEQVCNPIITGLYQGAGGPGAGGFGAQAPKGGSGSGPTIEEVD
row,Variant,effect of a mutation on the interaction
1,MWELRSIAFSRAVLAEFLATLLFVFFGLGSALQWASSPPSVLQIAVAFGLGIGTLVQALGHVSGAHINPAVTVACLVGCHVSFLRAAFYVAAQLLGAVAGAAILHEITPVEIRGDLAVNALHNNATAGQAVTVELFLTMQLVLCIFASTDERRSDNLGSPALSIGFSVTLGHLLGIYFTGCSMNPARSLAPAVVTGKFDDHWVFWIGPLVGAVIGSLLYNYLLFPSTKSLQERLAVLKGLEPDTDWEEREVRRRQSVELHSPQSLPRGDKA [S269D],decreasing interaction
